Laboratory results taken from paper PMC11919693, “Structural basis of the mechanism and inhibition of a human ceramide synthase” (Nature Structural & Molecular Biology, 2024).

T1: biotinylated C-terminally Avi-tagged human CerS6 (Homo sapiens, biotin on the Avi tag (in vitro, BirA))
T1 construct: Ceramide synthase 6 (CerS6), Homo sapiens, UniProt Q6ZMG9; A Gly-Gly-Gly-Ser linker stands between CerS6 and the Avi tag, which lies upstream of the TEV cleavage site; also called biotinylated CerS6; Avi-tagged CerS6; not shown: Avi, C-terminal, kept; 10xHis, C-terminal, cleaved; Twin-Strep, C-terminal, cleaved
T1 chain: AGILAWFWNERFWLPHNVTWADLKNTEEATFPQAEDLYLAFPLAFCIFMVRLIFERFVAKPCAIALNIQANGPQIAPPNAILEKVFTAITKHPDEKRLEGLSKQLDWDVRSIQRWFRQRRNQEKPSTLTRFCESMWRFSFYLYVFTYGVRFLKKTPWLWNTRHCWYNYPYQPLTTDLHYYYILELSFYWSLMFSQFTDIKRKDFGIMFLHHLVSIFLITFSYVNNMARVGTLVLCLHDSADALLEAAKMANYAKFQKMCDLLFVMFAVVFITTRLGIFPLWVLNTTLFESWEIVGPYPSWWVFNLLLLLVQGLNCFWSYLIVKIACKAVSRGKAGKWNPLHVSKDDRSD


Experiments:
[1] = biological target: human ceramide synthase 6 (CerS6), truncated at Asp350 (Met1-Asp350) (human) (UniProt Q6ZMG9); test: cryo-EM structure; CerS6 dimer mixed with a 1.5x molar excess of nanobody (Nb22 or Nb02), 1 h on ice, complex purified by SEC in GDN, 5 mg/ml; the CerS6–Nb22 complex also after incubation with 120 µM FB1; C2 symmetry imposed
[2] = biological target: T1, biotinylated C-terminally Avi-tagged …; test: BLI; Octet Red 384, Streptavidin SA biosensors loaded with 40 µg/ml biotinylated CerS6, SEC buffer with 0.003% LMNG and 0.0003% CHS; screen of unique nanobodies for slow off rates; settings: both partners purified
[3] = biological target: the molecule itself; test: cryo-EM structure; CerS6 dimer mixed with a 1.5x molar excess of nanobody (Nb22 or Nb02), 1 h on ice, complex purified by SEC in GDN, 5 mg/ml; the CerS6–Nb22 complex also after incubation with 120 µM FB1; C2 symmetry imposed
[4] = denaturing intact protein MS; settings: glycan lost; control: wild-type CerS6 (Met1-Asp350)

stoichiometry N [1]	binding result [2]	Binder	stoichiometry N [3]	other: presence of covalent palmitoyl-enzyme adduct, other: adduct mass shift [4]
1	binds	nanobody 02 (Nb02), anti-CerS6 camelid nanobody (VHH, alpaca nanobody raised against CerS6 proteoliposomes; its chain is in the deposited model PDB 9EOT (residues 1-123 modelled); source: WK6 cells, purified from periplasmic extracts (Ni2+-NTA)) VHH: QLQFVESGGGLVQAGGSLRLSCAASGRTFSRYAVGWFRQAPGKEREFVASITWNGATTYYADSVKGRFTISRDNAKNTVYLQMNSLKPEDTAVYYCALDLYSYGTRDVADFGSWGKGTRVTVSS	–	–
1 per monomer	binds	nanobody 22 (Nb22), anti-CerS6 camelid nanobody (VHH, alpaca nanobody raised against CerS6 proteoliposomes; its chain is in the deposited models PDB 8QZ6 and 8QZ7 (residues 1-124 modelled); source: WK6 cells, purified from periplasmic extracts (Ni2+-NTA)) VHH: QVQLVESGGGLVQAEGSLRLSCAASGRTFRTYGMGWFRQAPGKEREFVAALNWSGSSTYYADSVKGRFTISRDNAKNTAYLQMNSLKPEDTAVYYCAALRRKAEYGSRSIADFDSWSKGTPVTVSS	–	–

The next lines start with the binder.

Binder	stoichiometry N [1]	binding result [2]	stoichiometry N [3]	other: presence of covalent palmitoyl-enzyme adduct, other: adduct mass shift [4]
human ceramide synthase 6 (CerS6), truncated at Asp350 (Met1-Asp350) (enzyme, UniProt Q6ZMG9-2 1-350, looked up, palmitoyl (C16:0) chain covalently attached to His211 (covalent intermediate state; transferred to FB1 in the N-palmitoyl FB1-bound state); N-linked glycan on Asn18; loss of the initiator methionine and acetylation of the new N terminus, Ceramide synthase 6 (CerS6), Homo sapiens, UniProt Q6ZMG9, residues Met1-Asp350; C terminus predicted to be disordered removed; Purified as a mixture of monomer and dimer; the dimer SEC peak was used for the nanobody complexes and cryo-EM; also called acyl–CerS6; palmitoyl–CerS6; not shown: 10xHis, C-terminal, cleaved; Twin-Strep, C-terminal, cleaved) MAGILAWFWNERFWLPHNVTWADLKNTEEATFPQAEDLYLAFPLAFCIFMVRLIFERFVAKPCAIALNIQANGPQIAPPNAILEKVFTAITKHPDEKRLEGLSKQLDWDVRSIQRWFRQRRNQEKPSTLTRFCESMWRFSFYLYVFTYGVRFLKKTPWLWNTRHCWYNYPYQPLTTDLHYYYILELSFYWSLMFSQFTDIKRKDFGIMFLHHLVSIFLITFSYVNNMARVGTLVLCLHDSADALLEAAKMANYAKFQKMCDLLFVMFAVVFITTRLGIFPLWVLNTTLFESWEIVGPYPSWWVFNLLLLLVQGLNCFWSYLIVKIACKAVSRGKAGKWNPLHVSKDDRSD	–	–	2	–
CerS6: N18Q (protein) parent chain: MAGILAWFWNERFWLPHNVTWADLKNTEEATFPQAEDLYLAFPLAFCIFMVRLIFERFVAKPCAIALNIQANGPQIAPPNAILEKVFTAITKHPDEKRLEGLSKQLDWDVRSIQRWFRQRRNQEKPSTLTRFCESMWRFSFYLYVFTYGVRFLKKTPWLWNTRHCWYNYPYQPLTTDLHYYYILELSFYWSLMFSQFTDIKRKDFGIMFLHHLVSIFLITFSYVNNMARVGTLVLCLHDSADALLEAAKMANYAKFQKMCDLLFVMFAVVFITTRLGIFPLWVLNTTLFESWEIVGPYPSWWVFNLLLLLVQGLNCFWSYLIVKIACKAVSRGKVSKDDRSDIESSSDEEDSEPPGKNPHTATTTNGTSGTNGYLLTGSCSMDD	–	–	–	no change, +239.80 vs +238.45
